For assay [1], the target named is T1, amphyphisin SH3 (AMPH_HUMAN), P49418.
T1 chain: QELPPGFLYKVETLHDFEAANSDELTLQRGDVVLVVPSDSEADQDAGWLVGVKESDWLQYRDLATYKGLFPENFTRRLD
Briefly: SPOT array.

In assay [2] the target is endophilin SH3 (SH3G2_HUMAN), Q99962. In words: SPOT array.

This is an account of results in PMC314469, “Protein Interaction Networks by Proteome Peptide Scanning” (PLoS Biology, 2004).

As for DEPEPPRPRRGSLR [O43157 1891-1904], the normalised SPOT signal, Boehringer light units (BLU); mean over the file's lines of this peptide in assay [1] worked out at 3590; in assay [2], 126.

Turning to DEARLRRPPRPSSD [Q9Y2H9 828-841], the normalised SPOT signal, Boehringer light units (BLU); mean over the file's lines of this peptide in assay [1] was determined as 2750; in assay [2], 172.

For the molecule ADVDPQRPPRPEVK [Q9ULR6 191-204], the normalised SPOT signal, Boehringer light units (BLU); mean over the file's lines of this peptide worked out at 2760 in assay [1] and 125 in assay [2].

Consider SSGVPGRPPGLEEE [P49810 64-78], for which the normalised SPOT signal, Boehringer light units (BLU); mean over the file's lines of this peptide stood at 50.9 in assay [1] and 57.8 in assay [2].

For the molecule DGDPLKRPLLGIVQ [O75060 326-339], the normalised SPOT signal, Boehringer light units (BLU); mean over the file's lines of this peptide in assay [1] worked out at 18.7; in assay [2] it was 41.8.

As to DAQEIIRPRRSKYF [Q9HCG2 115-128], the normalised SPOT signal, Boehringer light units (BLU); mean over the file's lines of this peptide in assay [1] worked out at 723; in assay [2], 165.

On to DDLEIVRPARRRTP [Q15598 3286-3299], for which the normalised SPOT signal, Boehringer light units (BLU); mean over the file's lines of this peptide in assay [1] was 189; in assay [2], 67.6.

Regarding DAYSFKRPDRSKMN [P13611 342-355], the normalised SPOT signal, Boehringer light units (BLU); mean over the file's lines of this peptide in assay [1] was determined as 543; in assay [2] it was 45.4.

As to DGRLLYRPNKAGET [Q9ULH0 399-412], the normalised SPOT signal, Boehringer light units (BLU); mean over the file's lines of this peptide in assay [1] was 20; in assay [2] it was 44.6.

In the case of SSKEFNRPDKLKAH [Q9BYN7 579-592], the normalised SPOT signal, Boehringer light units (BLU); mean over the file's lines of this peptide in assay [1] was 132; in assay [2] it was 120.

DELEPRRPRYRVPD [Q14697 104-117]: the normalised SPOT signal, Boehringer light units (BLU); mean over the file's lines of this peptide stood at 35.4 in assay [1] and 26.4 in assay [2].

As to DEGSLRRPGRLTST [Q96ML9 142-155], the normalised SPOT signal, Boehringer light units (BLU); mean over the file's lines of this peptide in assay [1] came out at 81.1; in assay [2], 28.2.

As for DGKDPRRPKRPRTI [O60663 189-202], the figures for the normalised SPOT signal, Boehringer light units (BLU); mean over the file's lines of this peptide in assay [1] and in assay [2] were 3740 and 85, respectively.

DGKFLLRPRKEQGT [P43403 184-197]: the normalised SPOT signal, Boehringer light units (BLU); mean over the file's lines of this peptide was determined as 424 in assay [1] and 130 in assay [2].

For the molecule DSSKLRRPLKRNRI [Q9NVG6 7-20], the normalised SPOT signal, Boehringer light units (BLU); mean over the file's lines of this peptide in assay [1] is 111; in assay [2] it was 167.

In the case of DFYEPRRPEDDDPT [Q96IE0 67-80], the values for the normalised SPOT signal, Boehringer light units (BLU); mean over the file's lines of this peptide in assay [1] and in assay [2] were 0 and 50.1, respectively.

Consider DADPLKRPTFKQIV [P10721 908-921], for which the normalised SPOT signal, Boehringer light units (BLU); mean over the file's lines of this peptide in assay [1] was found to be 39.9; in assay [2] it was 19.8.

DDSVILRPSKSVKL [Q9Y2R2 666-679]: the normalised SPOT signal, Boehringer light units (BLU); mean over the file's lines of this peptide in assay [1] worked out at 119; in assay [2] it was 167.

For DGRTPLRPSRNTKQ [Q9H0H1 56-69], the normalised SPOT signal, Boehringer light units (BLU); mean over the file's lines of this peptide in assay [1] is 14900; in assay [2], 287.

For the molecule SVGRPTRPSRGPWR [Q9HBQ8 81-94], the normalised SPOT signal, Boehringer light units (BLU); mean over the file's lines of this peptide in assay [1] is 9540; in assay [2] it was 5870.

With DANRLRRPGGSYPA [Q14767 49-62], the normalised SPOT signal, Boehringer light units (BLU); mean over the file's lines of this peptide amounted to 24.8 in assay [1] and 59.6 in assay [2].

DDEPPARPPPPPPA [Q9NQC3 135-149]: the results for the normalised SPOT signal, Boehringer light units (BLU); mean over the file's lines of this peptide in assay [1] and in assay [2] were 37.6 and 54.3, respectively.

On to SVRGPLRPPVRSPA [Q96H54 9-23], for which the normalised SPOT signal, Boehringer light units (BLU); mean over the file's lines of this peptide in assay [1] is 5070; in assay [2], 5540.

Turning to STQGLRRPFGVAVM [Q92608 327-340], the normalised SPOT signal, Boehringer light units (BLU); mean over the file's lines of this peptide in assay [1] was determined as 8.9; in assay [2], 27.2.

Turning to DGEMFMRPGKLFDY [P08574 161-174], the normalised SPOT signal, Boehringer light units (BLU); mean over the file's lines of this peptide in assay [1] stood at 117; in assay [2], 72.5.

On to DEAQLSRPKKSSDR [O60481 257-270], for which the results for the normalised SPOT signal, Boehringer light units (BLU); mean over the file's lines of this peptide in assay [1] and in assay [2] were 51.5 and 76.4, respectively.

In the case of DEVWFKRPDGSKSK [Q9BRI4 246-259], the normalised SPOT signal, Boehringer light units (BLU); mean over the file's lines of this peptide in assay [1] worked out at 30; in assay [2], 60.8.

For STPRPARPPSPTEQ [Q96ML3 75-89], the normalised SPOT signal, Boehringer light units (BLU); mean over the file's lines of this peptide amounted to 324 in assay [1] and 9450 in assay [2].

For the molecule DGVSLSRPGRTADS [P39191 408-421], the values for the normalised SPOT signal, Boehringer light units (BLU); mean over the file's lines of this peptide in assay [1] and in assay [2] were 200 and 113, respectively.

Take DEEKPKRPTRRRRK [O94885 688-701]: the figures for the normalised SPOT signal, Boehringer light units (BLU); mean over the file's lines of this peptide in assay [1] and in assay [2] were 23100 and 959, respectively.

For the molecule DESRIRRPMNAFMV [P35713 81-94], the normalised SPOT signal, Boehringer light units (BLU); mean over the file's lines of this peptide came out at 69.5 in assay [1] and 94.4 in assay [2].

Turning to DGSFLARPSKSNPG [Q06124 26-39], the normalised SPOT signal, Boehringer light units (BLU); mean over the file's lines of this peptide is 96.2 in assay [1] and 36.7 in assay [2].

Regarding DDILINRPAKKHLE [Q9H9F8 116-129], the normalised SPOT signal, Boehringer light units (BLU); mean over the file's lines of this peptide in assay [1] amounted to 7.5; in assay [2] it was 127.

For the molecule DESSPRRPDYLKGL [Q99698 2220-2233], the figures for the normalised SPOT signal, Boehringer light units (BLU); mean over the file's lines of this peptide in assay [1] and in assay [2] were 23.9 and 28, respectively.

For the molecule ASLPPPRPQRPVTK [Q9NQE0 197-210], the values for the normalised SPOT signal, Boehringer light units (BLU); mean over the file's lines of this peptide in assay [1] and in assay [2] were 9900 and 5900, respectively.

On to SWGGPWRPPPPGFW [Q8TC90 86-100], for which the values for the normalised SPOT signal, Boehringer light units (BLU); mean over the file's lines of this peptide in assay [1] and in assay [2] were 43.7 and 1290, respectively.

In the case of ADAEPGRPKKRAHS [Q9P2P0 592-605], the normalised SPOT signal, Boehringer light units (BLU); mean over the file's lines of this peptide in assay [1] amounted to 120; in assay [2] it was 48.3.

As for DFPKPKKPPPPAKA [Q9Y5K6 333-347], the normalised SPOT signal, Boehringer light units (BLU); mean over the file's lines of this peptide worked out at 33 in assay [1] and 8340 in assay [2].
